EC50 data for nine molecules are collected here from patent publication US20160185837A1 (Medimmune Limited, priority 2013, published 2016).

Usually EC50 stands for the concentration needed to bring the measured effect to its halfway point.

Common to all, as to type: cell-based
The target in assay [1] is T1, human GIP receptor (hGIPr) (Homo sapiens, UniProt P48546).
T1 construct: expressed in transfected cells
T1 sequence (P48546 22-466): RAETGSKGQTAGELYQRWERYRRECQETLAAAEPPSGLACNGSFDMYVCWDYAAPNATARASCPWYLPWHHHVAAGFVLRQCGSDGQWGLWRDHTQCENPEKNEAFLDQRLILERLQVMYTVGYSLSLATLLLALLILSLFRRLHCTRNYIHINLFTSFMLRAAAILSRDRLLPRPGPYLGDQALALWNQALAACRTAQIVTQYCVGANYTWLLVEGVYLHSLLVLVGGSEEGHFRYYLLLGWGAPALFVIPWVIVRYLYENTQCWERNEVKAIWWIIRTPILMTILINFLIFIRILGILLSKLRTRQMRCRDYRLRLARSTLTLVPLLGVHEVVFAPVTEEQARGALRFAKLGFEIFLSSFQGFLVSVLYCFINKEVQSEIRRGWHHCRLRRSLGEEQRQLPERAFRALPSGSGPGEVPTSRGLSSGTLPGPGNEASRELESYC
Kind of assay: BSA-cAMP assay, cells expressing human GIP receptor. The following applies: Batch 1; BSA-cAMP assay; read-out: hGIPr cAMP activity EC50. Put shortly:
(§1)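 EC50 came from an unconstrained 4-parameter logistic fit of HTRF cAMP data expressed as percent of maximal native agonist activation, tested on two occasions. Thawed receptor-expressing cells (hGLP-1r, hGIPr at 0.5×10^5 cells/ml) treated 30 min at room temperature in 0.1% BSA-containing medium; two distinct hGIPr lines.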

Assay [2] has as its target T2, human GLP-1 receptor (hGLP-1r) (Homo sapiens, UniProt P43220).
T2 construct: expressed in transfected cells
Kind of assay: BSA-cAMP assay, cells expressing human GLP-1 receptor. The following applies: Batch 1; BSA-cAMP assay; read-out: hGLP1r cAMP activity EC50. Put shortly:
as §1
In general terms: Cyclic AMP is a second messenger, typically raised through Gs and lowered through Gi signalling.

For a further assay, the target named is T3, rat GIP receptor (rGIPr) (Rattus norvegicus, UniProt P43219).
T3 construct: expressed in transfected cells; host or cells: HEK293s or CHO cells
T3 sequence (P43219 19-455): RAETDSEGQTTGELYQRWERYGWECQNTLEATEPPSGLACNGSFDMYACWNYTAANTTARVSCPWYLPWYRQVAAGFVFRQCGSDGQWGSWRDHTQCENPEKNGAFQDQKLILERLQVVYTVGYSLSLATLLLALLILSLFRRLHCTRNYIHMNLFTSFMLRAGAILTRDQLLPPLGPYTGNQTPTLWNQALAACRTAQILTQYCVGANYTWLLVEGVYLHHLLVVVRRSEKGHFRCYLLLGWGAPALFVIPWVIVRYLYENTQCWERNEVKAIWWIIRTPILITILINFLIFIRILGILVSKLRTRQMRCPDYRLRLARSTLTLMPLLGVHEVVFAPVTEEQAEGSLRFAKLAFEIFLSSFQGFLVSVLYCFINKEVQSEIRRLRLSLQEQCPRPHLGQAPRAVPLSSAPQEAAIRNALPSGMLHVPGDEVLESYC
Kind of assay: BSA-cAMP assay, cells expressing rat GIP receptor. The following applies: Batch 1; BSA-cAMP assay; read-out: rGIPr cAMP activity EC50. The protocol:
(§2) One basic cAMP assays was performed, differing in the medium used for the assay, the “BSA-cAMP assay”:
(§3) BSA-based assay medium: 0.1% bovine serum albumin (BSA) in
(§4) In certain aspects, the assay can also be carried out in medium supplemented with serum albumin that corresponds to the receptor being tested, e.g., human serum albumin for testing cAMP activity at hGIPr or hGLP-1r, rat serum albumin for testing cAMP activity at rGIPr or rGLP-1r, and so on. […] All sample dilutions were made in duplicate.
(§5) A frozen cryo-vial of cells expressing the receptor of interest was thawed rapidly in a water-bath, transferred to pre-warmed assay media and spun at 240×g for 5 minutes. Cells were re-suspended in assay buffer at an optimized concentration (e.g., hGLP-1r and hGIPr cells at 0.5×10^5 cells/ml).
(§6) To this, 5 μL cell suspension was added and the plates incubated at room temperature for 30 minutes.
(§7) cAMP levels were measured using a commercially available cAMP dynamic 2 HTRF kit (Cisbio, Cat #62AM4PEJ), following the two step protocol as per manufacturer's recommendations. In brief; anti-cAMP cryptate (donor fluorophore) and cAMP-d2 (acceptor fluorophore) were made up separately by diluting each 1/20 in conjugate & lysis buffer provided in the kit. 5 μL anti-cAMP cryptate was added to all wells of the assay plate, and 5 μL cAMP-d2 added to all wells except non-specific binding (NSB) wells, to which conjugate and lysis buffer was added. […] Data was transformed to % Delta F as described in manufacturer's guidelines and then transformed to percent activation of maximal native agonist response and analysed by 4-parameter logistic fit to determine EC50 values.
(§8) We used unconstrained 4 parameter logistic fit of data, curve mid-point to determine EC50. This was tested on two occasions, not two batches.
(§9) In order to be able to carry out in vivo studies in rodents, IP088 was tested for potency against the mouse receptors mGIPr and mGLP-1r as well as the rat receptors rGIPr and rGLP-1r, using cells expressing the respective receptors in the cAMP assay described above.

Assay [3] has as its target T4, rat GLP-1 receptor (rGLP-1r) (Rattus norvegicus, UniProt P32301).
T4 construct: expressed in transfected cells; host or cells: HEK293s or CHO cells
T4 sequence (P32301 22-463): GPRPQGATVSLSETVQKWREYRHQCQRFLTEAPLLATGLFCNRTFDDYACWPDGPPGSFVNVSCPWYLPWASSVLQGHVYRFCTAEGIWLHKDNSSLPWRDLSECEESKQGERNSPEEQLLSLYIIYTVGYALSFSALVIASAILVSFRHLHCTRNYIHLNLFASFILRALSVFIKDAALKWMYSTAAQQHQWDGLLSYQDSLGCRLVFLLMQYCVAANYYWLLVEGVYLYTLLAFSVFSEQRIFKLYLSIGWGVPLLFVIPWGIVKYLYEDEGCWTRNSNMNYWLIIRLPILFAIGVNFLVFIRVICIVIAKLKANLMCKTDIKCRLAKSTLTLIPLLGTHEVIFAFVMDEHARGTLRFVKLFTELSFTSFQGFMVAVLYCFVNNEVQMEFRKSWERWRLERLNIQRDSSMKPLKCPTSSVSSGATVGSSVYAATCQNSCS
Kind of assay: BSA-cAMP assay, cells expressing rat GLP-1 receptor. As to conditions: Batch 1; BSA-cAMP assay; read-out: rGLP1r cAMP activity EC50. The procedure:
as §2, §3, §4, §5, §6, §7, §8, §9

The target in assay [4] is T5, mouse GIP receptor (mGIPr) (Mus musculus, UniProt Q0P543).
T5 construct: expressed in transfected cells; host or cells: HEK293s or CHO cells
T5 sequence (Q0P543 19-460): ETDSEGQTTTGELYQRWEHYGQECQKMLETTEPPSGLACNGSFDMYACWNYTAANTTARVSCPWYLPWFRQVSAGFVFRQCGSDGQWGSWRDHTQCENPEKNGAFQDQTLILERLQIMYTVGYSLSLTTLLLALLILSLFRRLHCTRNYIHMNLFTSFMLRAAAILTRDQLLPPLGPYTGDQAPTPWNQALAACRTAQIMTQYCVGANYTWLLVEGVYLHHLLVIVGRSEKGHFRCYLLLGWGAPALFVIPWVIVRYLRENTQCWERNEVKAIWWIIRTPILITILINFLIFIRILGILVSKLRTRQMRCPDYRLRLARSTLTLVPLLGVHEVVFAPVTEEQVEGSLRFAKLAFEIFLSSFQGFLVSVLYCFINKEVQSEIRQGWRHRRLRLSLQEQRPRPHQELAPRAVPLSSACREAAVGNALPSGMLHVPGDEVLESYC
Kind of assay: BSA-cAMP assay, cells expressing mouse GIP receptor. As to conditions: Batch 1; BSA-cAMP assay; read-out: mGIPr cAMP activity EC50. The procedure: as §2, §3, §4, §5, §6, §7, §8, §9

Assay [5] has as its target T6, human glucagon receptor (GCGr) (Homo sapiens, UniProt P47871).
T6 construct: expressed in transfected cells; host or cells: HEK293s or CHO cells
Kind of assay: BSA-cAMP assay, cells expressing human glucagon receptor. As to conditions: Batch 1, read-out: hGCGr cAMP activity EC50. The protocol:
as §2, §3, §4, §5, §6, §7, §8

Assay [6] concerns the target T7, mouse GLP-1 receptor (mGLP-1r) (Mus musculus, UniProt O35659).
T7 construct: expressed in transfected cells; host or cells: HEK293s or CHO cells
T7 sequence (O35659 22-463): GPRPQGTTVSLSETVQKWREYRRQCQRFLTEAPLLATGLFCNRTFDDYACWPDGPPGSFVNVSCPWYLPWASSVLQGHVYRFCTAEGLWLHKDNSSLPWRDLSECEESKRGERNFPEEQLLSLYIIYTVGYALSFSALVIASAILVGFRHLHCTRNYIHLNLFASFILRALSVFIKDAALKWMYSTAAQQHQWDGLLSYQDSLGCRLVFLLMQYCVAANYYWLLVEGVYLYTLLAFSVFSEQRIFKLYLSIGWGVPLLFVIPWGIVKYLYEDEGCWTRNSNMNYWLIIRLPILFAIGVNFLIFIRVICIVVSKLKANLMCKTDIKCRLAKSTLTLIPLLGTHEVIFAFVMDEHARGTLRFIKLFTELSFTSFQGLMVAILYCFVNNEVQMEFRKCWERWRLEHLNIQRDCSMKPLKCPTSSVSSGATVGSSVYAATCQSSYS
Kind of assay: BSA-cAMP assay, cells expressing mouse GLP-1 receptor. The following applies: Batch 1; BSA-cAMP assay; read-out: mGLP1r cAMP activity EC50. The procedure:
as §2, §3, §4, §5, §6, §7, §8, §9

T6 sequence (P47871 26-477): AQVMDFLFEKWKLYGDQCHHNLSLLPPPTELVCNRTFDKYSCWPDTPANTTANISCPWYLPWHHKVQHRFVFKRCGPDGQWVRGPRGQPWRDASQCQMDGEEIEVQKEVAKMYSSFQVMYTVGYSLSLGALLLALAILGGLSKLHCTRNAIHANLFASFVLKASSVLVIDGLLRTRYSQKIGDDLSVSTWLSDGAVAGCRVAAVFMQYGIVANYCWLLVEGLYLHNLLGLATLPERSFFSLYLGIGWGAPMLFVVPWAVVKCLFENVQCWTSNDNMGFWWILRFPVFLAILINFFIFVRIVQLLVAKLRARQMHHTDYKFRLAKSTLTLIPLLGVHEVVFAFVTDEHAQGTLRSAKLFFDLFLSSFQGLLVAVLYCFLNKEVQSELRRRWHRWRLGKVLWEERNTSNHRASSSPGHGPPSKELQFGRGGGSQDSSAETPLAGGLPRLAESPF
T2 sequence (P43220 24-463): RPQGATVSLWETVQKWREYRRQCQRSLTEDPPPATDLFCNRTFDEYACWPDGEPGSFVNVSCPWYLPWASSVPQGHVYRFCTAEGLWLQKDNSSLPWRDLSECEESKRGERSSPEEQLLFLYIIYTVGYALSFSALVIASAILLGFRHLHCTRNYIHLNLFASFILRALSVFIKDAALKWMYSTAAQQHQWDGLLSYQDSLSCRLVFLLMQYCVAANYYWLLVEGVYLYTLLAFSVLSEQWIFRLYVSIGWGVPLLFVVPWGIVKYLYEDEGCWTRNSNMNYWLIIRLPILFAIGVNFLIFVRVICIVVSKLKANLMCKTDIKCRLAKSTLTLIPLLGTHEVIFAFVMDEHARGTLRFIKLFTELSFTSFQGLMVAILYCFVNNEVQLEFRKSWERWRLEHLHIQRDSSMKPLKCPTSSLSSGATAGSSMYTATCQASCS

B1: IP312 (protein)
chain: YSEGTFISDVSSYMERQAIDEFIAWLLKGGAAAGGSGSTASSGSGSATGGGGAATHTCPPC
Regarding B1, the concentration giving a half-maximal response (EC50) is 0.048 nM in assay [1]; over 5310 nM in assay [2]; 1.2 nM in the assay with rat GIP receptor (rGIPr); 5.4 nM in assay [3]; 16 nM in assay [4]; over 5310 nM in assay [5]. Further, the EC50 in assay [6] was over 1060 nM.

B2: IP375 (protein)
chain: YSEGTHTSLFSKLLERQAIDEFIAWLLKGGAAAGGSGSTASSGSGSATGGGGAATHTCPPC
For B2, the EC50 is 0.078 nM in assay [1]; 4 nM in assay [2]; 0.07 nM with rat GIP receptor (rGIPr); 3.9 nM in assay [3]; 0.65 nM in assay [4]; over 11700 nM in assay [5]. For the same molecule, in assay [6], the EC50 came to 49 nM.

B3: IP401 (protein)
chain: YSEGTHTSDLSKLLERQAIDEFIAWLLKGGAAAGGSGSTASSGSGSATGGGGAATHTCPPC
As to B3, the EC50 in assay [1] is 3.5 nM; in assay [2], 0.35 nM; with rat GIP receptor (rGIPr), 0.014 nM; in assay [3] it was 0.073 nM; in assay [4], 3.6 nM; in assay [5], 3100 nM. Further, the EC50 in assay [6] stood at 13 nM.

B4: IP365 (protein)
chain: YSEGMHTSDFSKLLERQAIDEFIAWLLKGGAAAGGSGSTASSGSGSATGGGGAATHTCPPC
As to B4, the 50% effective concentration (EC50) was 0.02 nM in assay [1]; 0.87 nM in assay [2]; 0.12 nM with rat GIP receptor (rGIPr); 1.5 nM in assay [3]; 17 nM in assay [4]; over 10700 nM in assay [5]. The EC50 in assay [6] was determined as 11 nM.

B5: IP315 (protein)
chain: YSEGTFISDYSSYLERQAIDEFIAWLLKGGAAAGGSGSTASSGSGSATGGGGAATHTCPPC
Take B5: the EC50 in assay [1] was 0.024 nM; in assay [2] it was over 5460 nM; with rat GIP receptor (rGIPr), 0.096 nM; in assay [3] it was 13 nM; in assay [4], 0.36 nM; in assay [5], 280 nM. For the same molecule, the EC50 in assay [6] was over 5460 nM.

B6: IP366 (protein)
chain: YSEGTFTSDYRMLKERQAIDEFIAWLLKGGAAAGGSGSTASSGSGSATGGGGAATHTCPPC
As for B6, the EC50 was 0.14 nM in assay [1]; 6.1 nM in assay [2]; 0.016 nM with rat GIP receptor (rGIPr); 14 nM in assay [3]; 0.056 nM in assay [4]; over 10200 nM in assay [5]. For the same molecule, the EC50 in assay [6] is 100 nM.

B7: IP373 (protein)
chain: YSEGTHTSDFSKLLERQAIDEFIAWLLKGGAAAGGSGSTASSGSGSATGGGGAATHTCPPC
In the case of B7, the EC50 is 0.0054 nM in assay [1]; 0.72 nM in assay [2]; 0.035 nM with rat GIP receptor (rGIPr); 0.9 nM in assay [3]; 3.2 nM in assay [4]; over 6790 nM in assay [5]. In addition, the EC50 in assay [6] came to 9.2 nM.

B8: IP364 (protein)
chain: YSEGTFTSDFSKLLERQAIDEFIAWLLKGGAAAGGSGSTASSGSGSATGGGGAATHTCPPC
B8: the EC50 worked out at 0.0085 nM in assay [1]; 0.18 nM in assay [2]; 0.02 nM with rat GIP receptor (rGIPr); 0.058 nM in assay [3]; 0.5 nM in assay [4]; 610 nM in assay [5]. The EC50 in assay [6] came out at 0.69 nM.

B9: IP376 (protein)
chain: YSEGTFTSLFSKLLERQAIDEFIAWLLKGGAAAGGSGSTASSGSGSATGGGGAATHTCPPC
Turning to B9, the EC50 in assay [1] was 0.083 nM; in assay [2], 2.4 nM; with rat GIP receptor (rGIPr), 0.13 nM; in assay [3], 1.3 nM; in assay [4], 0.55 nM; in assay [5], over 7430 nM. The EC50 in assay [6] worked out at 21 nM.
